Test results from US20030171557.

Key:
[1] = tested on: GST-IkBα protein [GST: P08515]
Sequence of GST-IkBα protein [GST: P08515] (P08515 whole entry, looked up): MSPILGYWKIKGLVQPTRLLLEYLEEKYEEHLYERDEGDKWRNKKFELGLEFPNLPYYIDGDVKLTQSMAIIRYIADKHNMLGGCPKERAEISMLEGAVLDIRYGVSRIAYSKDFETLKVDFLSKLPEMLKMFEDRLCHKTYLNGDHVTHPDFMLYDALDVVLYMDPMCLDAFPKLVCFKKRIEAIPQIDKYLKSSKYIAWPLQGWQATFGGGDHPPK

With “GST fusion protein with mutant VRK1 protein (Lys 71 replaced by Trp)” as the substance, how does the “kinase assay, phosphorylation of substrate ([γ-32P]-ATP, SDS-PAGE, 10 mM Mg)” value [1] read?
The value was “no phosphorylation was observed in reactions with mutant VRK1 carrying mutation in the predicted ATP binding site”.

And the “kinase assay, phosphorylation of substrate ([γ-32P]-ATP, SDS-PAGE, 10 mM Mg)” value (casein (Sigma))?
Its value is “no phosphorylation was observed in reactions with mutant VRK1 carrying mutation in the predicted ATP binding site”.
